Test results: US20220143148A1, “COMPOSITIONS AND METHODS FOR MODULATING CGRP SIGNALING TO REGULATE INTESTINAL INNATE LYMPHOID CELLS” (The Broad Institute, Inc., priority 2019, published 2022)

System: small intestinal immune cells
Assay: Droplet-based scRNA-seq of small intestinal immune cells (LP and PP), OVA vs PBS, clustering and differential expression
Format: in vivo, mouse
Details: PP
From the text: To comprehensively characterize small intestinal immune cells, Applicants generated scRNA-Seq profiles for 58,067 immune cells collected from lamina propria (LP) and Peyer's patch (PP) regions at steady state and after induction of a type 2 inflammatory reaction to ovalbumin (OVA) (Brandt et al., 2003) (FIGS. 1A and 8A). To ensure sufficient representation of rare cells, Applicants combined a normalization strategy—removing by flow sorting either a portion of IgD+ naïve B cells, which are the most abundant cell type in PPs, or all CD19+ and CD3+ T cells (FIG. 8B, Methods)—with profiling of a sufficiently large number of cells number (P>0.99 to recover at least 15 cells from each cluster, Methods) by massively parallel scRNA-seq (Haber et al., 2017) (Methods). Applicants obtained 36,797 and 21,270 high quality cells passing initial filtering (Methods) from PP and LP regions, respectively.
Overall, Applicants annotated 27 cell subsets across the two compartments, spanning T cells, B cells, ILCs, dendritic cells (DCs), myeloid cells and stromal cells, in frequencies ranging from 0.07% to 14%. Briefly, Applicants first partitioned the cells from the PP regions by unsupervised clustering (Methods) into 46 clusters, retained the 97% of cells that were robustly assigned cell identities in each cluster (Methods), assigned the cells from the LP regions to the 46 clusters using a classifier (Methods), and visualized the data with scvis (Ding et al., 2018), a deep generative model-based method (FIGS. 1B and 8C, Methods). Next, Applicants identified genes that were differentially expressed between the cells in each cluster and the remaining cells (Table 1, Methods), as well as between pairs of clusters (Table 2), to elucidate identities of similar cell types/states. Applicants excluded from downstream analysis clusters mostly consisting of contaminants from epithelium, likely doublets, or cells with a small number of Unique Molecular Identifiers (UMIs) (FIGS. 1C and 8D), or lacking distinct markers (Methods). Altogether, Applicants retained 27 clusters spanning 85% of the cells and each associated with distinct marker genes (FIG. 8E, Methods).
To induce allergic reaction to OVA, 6 to 7 weeks old mice were sensitized twice, two weeks apart, with 50 μg of OVA plus 1 mg of aluminum potassium sulfate adjuvant via intraperitoneal injection. Two weeks later, mice were orally administered with 50 mg of OVA on every other day for a total of five times. 1 μg of α-CGRP peptide was administered simultaneously when indicated. Mice were deprived of food for 3-4 hours in cages with wood chip bedding for limiting antigen degradation in the stomach before each intragastric challenge.
Isolation of cells from Peyer's patches (PPs). Peyer's patches (PPs) were carefully dissected from the small intestine under a stereo microscope using a fine scissor, pierced once with a fine forcep. Tissues were digested in freshly made digestion buffer (RPMI-1640 containing 100 μg/ml Liberase™ and 50 μg/ml DNase I at 37° C. on a roto-mixer. After 15 min, tissues were very gently mixed using a 1 ml pipette. The supernatant was collected and added to ice-cold MACS buffer (pH 7.4; PBS plus 2% FCS and 2 mM EDTA). Pre-warmed (37° C.) fresh digestion buffer was added to the remaining tissues. After rotation at 37° C. for 15 min, the mixture was vigorously mixed using a 1 ml pipette for 1 min. Supernatants from the two steps were combined and passed through 70 μm filters and stained for FACS (below).
Isolation of cells from the lamina propria (LP). The small intestines were opened longitudinally and washed in ice-cold PBS. For scRNA-seq, roughly 0.5 cm of fragments from each of the distal, middle and proximal regions without visible PPs were collected. Epithelial cells were dissociated by tissue rotation in pre-warmed (37° C.) PBS containing 10 mM EDTA at 37° C. for 15 min, followed by additional incubation on ice for 15 min. Tissues were then shaken vigorously. […]

B1: OVA (protein, UniProt P01012 2-386, looked up)
Ovalbumin: GSIGAASMEFCFDVFKELKVHHANENIFYCPIAIMSALAMVYLGAKDSTRTQINKVVRFDKLPGFGDSIEAQCGTSVNVHSSLRDILNQITKPNDVYSFSLASRLYAEERYPILPEYLQCVKELYRGGLEPINFQTAADQARELINSWVESQTNGIIRNVLQPSSVDSQTAMVLVNAIVFKGLWEKAFKDEDTQAMPFRVTEQESKPVQMMYQIGLFRVASMASEKMKILELPFASGTMSMLVLLPDEVSGLEQLESIINFEKLTEWTSSNVMEERKIKVYLPRMKMEEKYNLTSVLMAMGITDVFSSSANLSGISSAESLKISQAVHAAHAEINEAGREVVGSAEAGVDAASVSEEFRADHPFLFCIKHIATNAVLFFGRCVSP
Snrnp70 LN (average fold change) (cluster ID 6, OVA vs PBS): 0.220 | Tmem50a LN (average fold change) (cluster ID 6, OVA vs PBS): 0.153 | Tmem59 LN (average fold change) (cluster ID 6, OVA vs PBS): 0.179 | Tmem86a LN (average fold change) (cluster ID 6, OVA vs PBS): 0.323 | Tsix LN (average fold change) (cluster ID 6, OVA vs PBS): −0.418 | Txndc5 LN (average fold change) (cluster ID 6, OVA vs PBS): 0.226 | Ddit4 percentage of expressing cells in OVA-treated group (cluster ID 7): 0.359 | Dusp2 percentage of expressing cells in OVA-treated group (cluster ID 7): 0.465 | Fkbp5 percentage of expressing cells in OVA-treated group (cluster ID 7): 0.167 | Gabarapl2 percentage of expressing cells in OVA-treated group (cluster ID 7): 0.643 | Hsp90ab1 percentage of expressing cells in OVA-treated group (cluster ID 7): 0.834 | Il7r percentage of expressing cells in OVA-treated group (cluster ID 7): 0.191 | Lmo4 percentage of expressing cells in OVA-treated group (cluster ID 7): 0.204 | Matk percentage of expressing cells in OVA-treated group (cluster ID 7): 0.284 | Ptpn22 percentage of expressing cells in OVA-treated group (cluster ID 7): 0.53 | Svbp percentage of expressing cells in OVA-treated group (cluster ID 7): 0.246 | Tsc22d3 percentage of expressing cells in OVA-treated group (cluster ID 7): 0.565 | Txnip percentage of expressing cells in OVA-treated group (cluster ID 7): 0.415 | Zfp36l2 percentage of expressing cells in OVA-treated group (cluster ID 7): 0.757 | Ddit4 LN (average fold change) (cluster ID 7, OVA vs PBS): 0.463 | Dusp2 LN (average fold change) (cluster ID 7, OVA vs PBS): 0.542 | Fkbp5 LN (average fold change) (cluster ID 7, OVA vs PBS): 0.540 | Gabarapl2 LN (average fold change) (cluster ID 7, OVA vs PBS): 0.253 | Hsp90ab1 LN (average fold change) (cluster ID 7, OVA vs PBS): −0.450 | Il7r LN (average fold change) (cluster ID 7, OVA vs PBS): 0.526 | Lmo4 LN (average fold change) (cluster ID 7, OVA vs PBS): 0.711 | Matk LN (average fold change) (cluster ID 7, OVA vs PBS): 0.513 | Ptpn22 LN (average fold change) (cluster ID 7, OVA vs PBS): 0.340 | Svbp LN (average fold change) (cluster ID 7, OVA vs PBS): 0.261 | Tsc22d3 LN (average fold change) (cluster ID 7, OVA vs PBS): 1.003 | Txnip LN (average fold change) (cluster ID 7, OVA vs PBS): 0.551 | Zfp36l2 LN (average fold change) (cluster ID 7, OVA vs PBS): 1.239 | AW112010 percentage of expressing cells in OVA-treated group (cluster ID 8): 0.995 | AY036118 percentage of expressing cells in OVA-treated group (cluster ID 8): 0.431 | Actr3 percentage of expressing cells in OVA-treated group (cluster ID 8): 0.771 | Alyref percentage of expressing cells in OVA-treated group (cluster ID 8): 0.137 | Amd1 percentage of expressing cells in OVA-treated group (cluster ID 8): 0.265 | Arf4 percentage of expressing cells in OVA-treated group (cluster ID 8): 0.478 | Arfrp1 percentage of expressing cells in OVA-treated group (cluster ID 8): 0.21 | Arl6ip1 percentage of expressing cells in OVA-treated group (cluster ID 8): 0.61 | Arl6ip5 percentage of expressing cells in OVA-treated group (cluster ID 8): 0.618 | Arpc5l percentage of expressing cells in OVA-treated group (cluster ID 8): 0.381 | Arrb2 percentage of expressing cells in OVA-treated group (cluster ID 8): 0.32 | Ash1l percentage of expressing cells in OVA-treated group (cluster ID 8): 0.235 | B2m percentage of expressing cells in OVA-treated group (cluster ID 8): 0.999 | Bcl2a1b percentage of expressing cells in OVA-treated group (cluster ID 8): 0.151 | Bcl2l11 percentage of expressing cells in OVA-treated group (cluster ID 8): 0.383 | Bcl2 percentage of expressing cells in OVA-treated group (cluster ID 8): 0.839 | Bhlhe40 percentage of expressing cells in OVA-treated group (cluster ID 8): 0.571 | Cap1 percentage of expressing cells in OVA-treated group (cluster ID 8): 0.695 | Ccr2 percentage of expressing cells in OVA-treated group (cluster ID 8): 0.536 | Cd47 percentage of expressing cells in OVA-treated group (cluster ID 8): 0.833 | Cd69 percentage of expressing cells in OVA-treated group (cluster ID 8): 0.306 | Cd74 percentage of expressing cells in OVA-treated group (cluster ID 8): 0.448 | Cdk2ap1 percentage of expressing cells in OVA-treated group (cluster ID 8): 0.132 | Cdkn1a percentage of expressing cells in OVA-treated group (cluster ID 8): 0.084 | Cdv3 percentage of expressing cells in OVA-treated group (cluster ID 8): 0.255 | Cks2 percentage of expressing cells in OVA-treated group (cluster ID 8): 0.108 | Clec2d percentage of expressing cells in OVA-treated group (cluster ID 8): 0.289 | Coq10b percentage of expressing cells in OVA-treated group (cluster ID 8): 0.305 | Crem percentage of expressing cells in OVA-treated group (cluster ID 8): 0.371 | Csrp1 percentage of expressing cells in OVA-treated group (cluster ID 8): 0.129 | Ctla2a percentage of expressing cells in OVA-treated group (cluster ID 8): 0.74 | Cxcr4 percentage of expressing cells in OVA-treated group (cluster ID 8): 0.577 | Ddx21 percentage of expressing cells in OVA-treated group (cluster ID 8): 0.248 | Defa24 percentage of expressing cells in OVA-treated group (cluster ID 8): 0.044 | Dgat1 percentage of expressing cells in OVA-treated group (cluster ID 8): 0.175 | Dusp1 percentage of expressing cells in OVA-treated group (cluster ID 8): 0.614 | Eef2 percentage of expressing cells in OVA-treated group (cluster ID 8): 0.957 | Egr1 percentage of expressing cells in OVA-treated group (cluster ID 8): 0.156 | Eif4a2 percentage of expressing cells in OVA-treated group (cluster ID 8): 0.622 | Emb percentage of expressing cells in OVA-treated group (cluster ID 8): 0.506 | Fam105a percentage of expressing cells in OVA-treated group (cluster ID 8): 0.376 | Fasl percentage of expressing cells in OVA-treated group (cluster ID 8): 0.598 | Fcer1g percentage of expressing cells in OVA-treated group (cluster ID 8): 0.927
